B1: T21:660 peptide (peptide)
peptide: SLERLVNAI
notes: Synthetic peptide
B2: T21:656 peptide (peptide)
peptide: LIIPSLERL
notes: Synthetic peptide
B3: T21:765 peptide (peptide)
peptide: YLIHLLQEL
notes: Synthetic peptide
B4: T21:607 peptide (peptide)
peptide: VIAKFQNKL
notes: Synthetic peptide

Biological target: T1, HLA-A2.1 MHC class I on the surface of T2 cells
T1 construct: whole, on cells; MHC class I molecule stabilised on T2 cells by added peptide
Assay: T2 MHC class I stabilisation, flow cytometry with anti HLA-A2.1 mAb, peptide at 1 ug (printed '1 lg'), n = 3
Procedure: (§1) 2. CAPABILITY OF T21-DERIVED PEPTIDES TO STABILISE MHC CLASS I ON THE SURFACE OF T2 CELLS. Each of the peptides were then screened in a standard T2 assay to determine their ability to stabilise MHC class I molecules on the surface of T2 cells. In brief, T2 cells were cultured routinely in suspension and when required, resuspended to 4×10⁶ cells/ml. 40 μl of the cell suspension was added to round bottom 96 well plates to give a final cell number of 1.6×10⁵ cells/well. Test peptide was added to the wells in triplicate at concentrations of 100, 10, 1 μg. As a control, T2 cells were also treated with equivalent concentrations of DMSO. Following overnight incubation, cells were harvested into FACS tubes, washed and labelled with anti HLA-A2.1 monoclonal antibody (primary antibody) and FITC conjugated goat IgG F(ab′)₂ anti mouse Ig (secondary antibody). Cells were then analysed using a FACScan spectrofluorometer. (See Table 5 and FIG. 6).
(§2) TABLE 5 Mean T2 binding ratios calculated for the four T21-derived peptides. Mean fluorescence (T2 binding ratio) was calculated by dividing the fluorescence observed for the test peptide by the fluorescence observed for the control (DMSO).

Row | Binder | Mean T2 binding ratio
1 | B1 | 0.918 ratio to DMSO control
2 | B2 | 0.955 ratio to DMSO control
3 | B3 | 0.955 ratio to DMSO control
4 | B4 | 0.951 ratio to DMSO control

Biological target: T1, HLA-A2.1 MHC class I on the surface of …
Assay: T2 MHC class I stabilisation, flow cytometry with anti HLA-A2.1 mAb, peptide at 10 ug (printed '10 lg'), n = 3
Procedure: as §1, §2

Row | Binder | Mean T2 binding ratio
5 | B1 | 0.942 ratio to DMSO control
6 | B2 | 0.928 ratio to DMSO control
7 | B3 | 1.11 ratio to DMSO control
8 | B4 | 0.967 ratio to DMSO control

Biological target: T1, HLA-A2.1 MHC class I on the surface of …
Assay: T2 MHC class I stabilisation, flow cytometry with anti HLA-A2.1 mAb, peptide at 100 ug (printed '100 lg'), n = 3
Procedure: as §1, §2

Row | Binder | Mean T2 binding ratio
9 | B1 | 0.893 ratio to DMSO control
10 | B2 | 0.921 ratio to DMSO control
11 | B3 | 2.86 ratio to DMSO control
12 | B4 | 0.933 ratio to DMSO control

Reference: patent publication US20100297136A1 (NOTTINGHAM TRENT UNIVERSITY, published 2010)
